Reference: patent US20200239549A1 (KM BIOLOGICS, published 2020)

B1: antibody D48 scFv-hFc (Fc fusion, not shown: a dimerising Fc or GST)
scFv: EVQLVETGGGVVRPGRSLRLSCTTSGFSFSGSAMHWVRQAPGKGLEWVAVISHDGNIIQYHDSVKGRFTISRDNSKNVLLLQMNSLRVDDTAMYYCARDVWLLPATISYAFDFWGQGTMVTVSSASTGGGGSGGGGSGGGGSVIWMTQSPPSLSASIGDTVTITCRASQGISNSIAWYQRRPGKAPELLVYAAYRLQSGVPSRLSGSGSGAEYTLTIKNMQPEDFATYYCQQYYDNPLTFGGGTKVEIK
B2: antibody D48 human-guinea pig chimeric IgG2κ (antibody, V domains shown)
VH: EVQLVETGGGVVRPGRSLRLSCTTSGFSFSGSAMHWVRQAPGKGLEWVAVISHDGNIIQYHDSVKGRFTISRDNSKNVLLLQMNSLRVDDTAMYYCARDVWLLPATISYAFDFWGQGTMVTVSS
VL: VIWMTQSPPSLSASIGDTVTITCRASQGISNSIAWYQRRPGKAPELLVYAAYRLQSGVPSRLSGSGSGAEYTLTIKNMQPEDFATYYCQQYYDNPLTFGGGTKVEIK
B3: antibody D48 human-murine chimeric IgG2a (antibody, V domains shown, not shown: a dimerising Fc or GST)
VH: EVQLVETGGGVVRPGRSLRLSCTTSGFSFSGSAMHWVRQAPGKGLEWVAVISHDGNIIQYHDSVKGRFTISRDNSKNVLLLQMNSLRVDDTAMYYCARDVWLLPATISYAFDFWGQGTMVTVSS
VL: VIWMTQSPPSLSASIGDTVTITCRASQGISNSIAWYQRRPGKAPELLVYAAYRLQSGVPSRLSGSGSGAEYTLTIKNMQPEDFATYYCQQYYDNPLTFGGGTKVEIK
B4: antibody D48 Fab (Fab, V domains shown, not shown: small tags and cut ends; a dimerising Fc or GST)
VH: EVQLVETGGGVVRPGRSLRLSCTTSGFSFSGSAMHWVRQAPGKGLEWVAVISHDGNIIQYHDSVKGRFTISRDNSKNVLLLQMNSLRVDDTAMYYCARDVWLLPATISYAFDFWGQGTMVTVSS
VL: VIWMTQSPPSLSASIGDTVTITCRASQGISNSIAWYQRRPGKAPELLVYAAYRLQSGVPSRLSGSGSGAEYTLTIKNMQPEDFATYYCQQYYDNPLTFGGGTKVEIK

Columns and labels:
[1] = target: envelope glycoprotein B (gB) of HSV-1 strain KOS (HSV-1 strain KOS, UniProt P06437 31-904); experiment: cell-based or functional assay
[2] = target: envelope glycoprotein B (gB) of HSV-2 strain MS (HSV-2 strain MS); experiment: cell-based or functional assay
[3] = target: recombinant gB (gB1-705-strep), ectodomain of wild type gB of HSV-2 strain 333 (HSV-2 strain 333, UniProt P06763 23-727)

| Binder | 50% plaque number-reducing activity [1] | 50% plaque number-reducing activity [2] | Kd [3] |
| --- | --- | --- | --- |
| B1 | 1 nM | 0.12 nM | – |
| B2 | 0.94 nM | 7.5 nM | 760 pM |
| B3 | 1.9 nM | 1.6 nM | – |
| B4 | 2.7 nM | 4.4 nM | – |
